Measured values reported in US20220056104A1 (Janssen / Centocor, published 2022).

T1: DcR3 (UniProt O95407 30-300, limits assumed)
T1 construct: the construct is not described; also called decoy receptor DcR3; TNFRSF6B
T1 sequence (looked up): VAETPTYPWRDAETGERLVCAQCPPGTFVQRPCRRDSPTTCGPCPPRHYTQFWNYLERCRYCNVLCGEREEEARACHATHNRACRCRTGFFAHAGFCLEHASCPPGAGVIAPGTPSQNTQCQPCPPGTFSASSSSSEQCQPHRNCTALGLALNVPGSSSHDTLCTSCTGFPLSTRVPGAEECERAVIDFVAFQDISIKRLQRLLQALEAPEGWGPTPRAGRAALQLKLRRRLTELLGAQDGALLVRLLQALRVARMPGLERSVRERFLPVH

T2: Recombinant DR3-Fc (R&D Systems, cat. #943-D3) (UniProt Q93038 25-199, limits assumed)
T2 construct: dimeric MW~92 kDa; also called DR3 receptor; Fc-DR3; not shown: Fc part of the bought fusion
T2 sequence (looked up): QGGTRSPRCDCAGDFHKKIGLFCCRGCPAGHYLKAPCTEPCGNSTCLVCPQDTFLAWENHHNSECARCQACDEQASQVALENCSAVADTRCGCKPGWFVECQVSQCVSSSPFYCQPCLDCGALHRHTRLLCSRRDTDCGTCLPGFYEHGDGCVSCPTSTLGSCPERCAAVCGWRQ


Tests used:
DcR3 = target: T1, DcR3; assay: ELISA, DcR3
[1] = target: T2, Recombinant DR3-Fc (R&D Systems, cat. …); assay: ELISA, DR3-Fc immobilized
Outline: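 DR3-Fc (10 μg/mL) was coated overnight at 4 °C, blocked with casein, then incubated overnight at 4 °C with TL1A variants from 25 μg/mL in 3-fold dilutions. Bound TL1A was detected with biotinylated rabbit anti-human TL1A and streptavidin-HRP, read by chemiluminescence; triplicates, errors as standard error.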

Binder | EC50 (DcR3) | Rel EC50 (DcR3) | EC50 [1] | Rel EC50 [1]
TL1W103 (His-TEV-TL1A T185A) (ligand, also called TL1W103 (T185A)) HHHHHHENLYFQGLKGQEFAPSHQQVYAPLRADGDKPRAHLTVVRQTPTQHFKNQFPALHWEHELGLAFTKNRMNYTNKFLLIPESGDYFIYSQVTFRGMTSECSEIRQAGRPNKPDSITVVITKVADSYPEPTQLLMGTKSVCEVGSNWFQPIYLGAMFSLQEGDKLMVNVSDISLVDYTKEDKTFFGAFLL | 11.5 nM | 2.5 ratio (head: nM) | 57.9 nM | 2.2 ratio (head: nM)
TL1W105 (His-TEV-TL1A T185N) (ligand, also called TL1W105 (T185N)) HHHHHHENLYFQGLKGQEFAPSHQQVYAPLRADGDKPRAHLTVVRQTPTQHFKNQFPALHWEHELGLAFTKNRMNYTNKFLLIPESGDYFIYSQVTFRGMTSECSEIRQAGRPNKPDSITVVITKVNDSYPEPTQLLMGTKSVCEVGSNWFQPIYLGAMFSLQEGDKLMVNVSDISLVDYTKEDKTFFGAFLL | 11.3 nM | 2.4 ratio (head: nM) | 180 nM | 6.9 ratio (head: nM)
TL1W113 (His-TEV-TL1A P189S) (ligand, also called TL1W113 (P189S)) HHHHHHENLYFQGLKGQEFAPSHQQVYAPLRADGDKPRAHLTVVRQTPTQHFKNQFPALHWEHELGLAFTKNRMNYTNKFLLIPESGDYFIYSQVTFRGMTSECSEIRQAGRPNKPDSITVVITKVTDSYSEPTQLLMGTKSVCEVGSNWFQPIYLGAMFSLQEGDKLMVNVSDISLVDYTKEDKTFFGAFLL | 19.8 nM | 4.3 ratio (head: nM) | 1000 nM | 38.2 ratio (head: nM)
TL1W124 (His-TEV-TL1A N207K) (ligand, also called TL1W124 (N207K)) HHHHHHENLYFQGLKGQEFAPSHQQVYAPLRADGDKPRAHLTVVRQTPTQHFKNQFPALHWEHELGLAFTKNRMNYTNKFLLIPESGDYFIYSQVTFRGMTSECSEIRQAGRPNKPDSITVVITKVTDSYPEPTQLLMGTKSVCEVGSKWFQPIYLGAMFSLQEGDKLMVNVSDISLVDYTKEDKTFFGAFLL | 15.4 nM | 3.4 ratio (head: nM) | 110 nM | 4.2 ratio (head: nM)
TL1W114 (His-TEV-TL1A T192A) (ligand, also called TL1W114 (T192A)) HHHHHHENLYFQGLKGQEFAPSHQQVYAPLRADGDKPRAHLTVVRQTPTQHFKNQFPALHWEHELGLAFTKNRMNYTNKFLLIPESGDYFIYSQVTFRGMTSECSEIRQAGRPNKPDSITVVITKVTDSYPEPAQLLMGTKSVCEVGSNWFQPIYLGAMFSLQEGDKLMVNVSDISLVDYTKEDKTFFGAFLL | 10 nM | 2.2 ratio (head: nM) | 23.3 nM | 0.9 ratio (head: nM)
TL1W106 (His-TEV-TL1A T185D) (ligand, also called TL1W106 (T185D)) HHHHHHENLYFQGLKGQEFAPSHQQVYAPLRADGDKPRAHLTVVRQTPTQHFKNQFPALHWEHELGLAFTKNRMNYTNKFLLIPESGDYFIYSQVTFRGMTSECSEIRQAGRPNKPDSITVVITKVDDSYPEPTQLLMGTKSVCEVGSNWFQPIYLGAMFSLQEGDKLMVNVSDISLVDYTKEDKTFFGAFLL | 79.9 nM | 17.4 ratio (head: nM) | 124 nM | 4.7 ratio (head: nM)
TL1W110 (His-TEV-TL1A S187K) (ligand, also called TL1W110 (S187K)) HHHHHHENLYFQGLKGQEFAPSHQQVYAPLRADGDKPRAHLTVVRQTPTQHFKNQFPALHWEHELGLAFTKNRMNYTNKFLLIPESGDYFIYSQVTFRGMTSECSEIRQAGRPNKPDSITVVITKVTDKYPEPTQLLMGTKSVCEVGSNWFQPIYLGAMFSLQEGDKLMVNVSDISLVDYTKEDKTFFGAFLL | 15.8 nM | 3.4 ratio (head: nM) | 33.7 nM | 1.3 ratio (head: nM)
TL1W120 (His-TEV-TL1A S206K) (ligand, also called TL1W120 (S206K)) HHHHHHENLYFQGLKGQEFAPSHQQVYAPLRADGDKPRAHLTVVRQTPTQHFKNQFPALHWEHELGLAFTKNRMNYTNKFLLIPESGDYFIYSQVTFRGMTSECSEIRQAGRPNKPDSITVVITKVTDSYPEPTQLLMGTKSVCEVGKNWFQPIYLGAMFSLQEGDKLMVNVSDISLVDYTKEDKTFFGAFLL | 91 nM | 19.8 ratio (head: nM) | 114 nM | 4.4 ratio (head: nM)
TL1W111 (His-TEV-TL1A S187D) (ligand, also called TL1W111 (S187D)) HHHHHHENLYFQGLKGQEFAPSHQQVYAPLRADGDKPRAHLTVVRQTPTQHFKNQFPALHWEHELGLAFTKNRMNYTNKFLLIPESGDYFIYSQVTFRGMTSECSEIRQAGRPNKPDSITVVITKVTDDYPEPTQLLMGTKSVCEVGSNWFQPIYLGAMFSLQEGDKLMVNVSDISLVDYTKEDKTFFGAFLL | 16.7 nM | 3.6 ratio (head: nM) | 44.2 nM | 1.7 ratio (head: nM)
TL1W121 (His-TEV-TL1A S206E) (ligand, also called TL1W121 (S206E)) HHHHHHENLYFQGLKGQEFAPSHQQVYAPLRADGDKPRAHLTVVRQTPTQHFKNQFPALHWEHELGLAFTKNRMNYTNKFLLIPESGDYFIYSQVTFRGMTSECSEIRQAGRPNKPDSITVVITKVTDSYPEPTQLLMGTKSVCEVGENWFQPIYLGAMFSLQEGDKLMVNVSDISLVDYTKEDKTFFGAFLL | 17.2 nM | 3.7 ratio (head: nM) | 105 nM | 4 ratio (head: nM)
TL1W119 (His-TEV-TL1A S206F) (ligand, also called TL1W119 (S206F)) HHHHHHENLYFQGLKGQEFAPSHQQVYAPLRADGDKPRAHLTVVRQTPTQHFKNQFPALHWEHELGLAFTKNRMNYTNKFLLIPESGDYFIYSQVTFRGMTSECSEIRQAGRPNKPDSITVVITKVTDSYPEPTQLLMGTKSVCEVGFNWFQPIYLGAMFSLQEGDKLMVNVSDISLVDYTKEDKTFFGAFLL | 8.1 nM | 1.8 ratio (head: nM) | 87.5 nM | 3.3 ratio (head: nM)
TL1W118 (His-TEV-TL1A S206A) (ligand, also called TL1W118 (S206A)) HHHHHHENLYFQGLKGQEFAPSHQQVYAPLRADGDKPRAHLTVVRQTPTQHFKNQFPALHWEHELGLAFTKNRMNYTNKFLLIPESGDYFIYSQVTFRGMTSECSEIRQAGRPNKPDSITVVITKVTDSYPEPTQLLMGTKSVCEVGANWFQPIYLGAMFSLQEGDKLMVNVSDISLVDYTKEDKTFFGAFLL | 8.8 nM | 1.9 ratio (head: nM) | 41.7 nM | 1.6 ratio (head: nM)
TL1W107 (His-TEV-TL1A D186Y) (ligand, also called TL1W107 (D186Y)) HHHHHHENLYFQGLKGQEFAPSHQQVYAPLRADGDKPRAHLTVVRQTPTQHFKNQFPALHWEHELGLAFTKNRMNYTNKFLLIPESGDYFIYSQVTFRGMTSECSEIRQAGRPNKPDSITVVITKVTYSYPEPTQLLMGTKSVCEVGSNWFQPIYLGAMFSLQEGDKLMVNVSDISLVDYTKEDKTFFGAFLL | 6.2 nM | 1.4 ratio (head: nM) | 63.8 nM | 2.4 ratio (head: nM)
TL1W115 (His-TEV-TL1A T192F) (ligand, also called TL1W115 (T192F)) HHHHHHENLYFQGLKGQEFAPSHQQVYAPLRADGDKPRAHLTVVRQTPTQHFKNQFPALHWEHELGLAFTKNRMNYTNKFLLIPESGDYFIYSQVTFRGMTSECSEIRQAGRPNKPDSITVVITKVTDSYPEPFQLLMGTKSVCEVGSNWFQPIYLGAMFSLQEGDKLMVNVSDISLVDYTKEDKTFFGAFLL | 10.6 nM | 2.3 ratio (head: nM) | 14.2 nM | 0.5 ratio (head: nM)
TL1W112 (His-TEV-TL1A P189F) (ligand, also called TL1W112 (P189F)) HHHHHHENLYFQGLKGQEFAPSHQQVYAPLRADGDKPRAHLTVVRQTPTQHFKNQFPALHWEHELGLAFTKNRMNYTNKFLLIPESGDYFIYSQVTFRGMTSECSEIRQAGRPNKPDSITVVITKVTDSYFEPTQLLMGTKSVCEVGSNWFQPIYLGAMFSLQEGDKLMVNVSDISLVDYTKEDKTFFGAFLL | 66.1 nM | 14.4 ratio (head: nM) | 202 nM | 7.7 ratio (head: nM)
TL1W123 (His-TEV-TL1A N207S) (ligand, also called TL1W123 (N207S)) HHHHHHENLYFQGLKGQEFAPSHQQVYAPLRADGDKPRAHLTVVRQTPTQHFKNQFPALHWEHELGLAFTKNRMNYTNKFLLIPESGDYFIYSQVTFRGMTSECSEIRQAGRPNKPDSITVVITKVTDSYPEPTQLLMGTKSVCEVGSSWFQPIYLGAMFSLQEGDKLMVNVSDISLVDYTKEDKTFFGAFLL | 8.6 nM | 1.9 ratio (head: nM) | 26.8 nM | 1 ratio (head: nM)
TL1W116 (His-TEV-TL1A T192K) (ligand, also called TL1W116 (T192K)) HHHHHHENLYFQGLKGQEFAPSHQQVYAPLRADGDKPRAHLTVVRQTPTQHFKNQFPALHWEHELGLAFTKNRMNYTNKFLLIPESGDYFIYSQVTFRGMTSECSEIRQAGRPNKPDSITVVITKVTDSYPEPKQLLMGTKSVCEVGSNWFQPIYLGAMFSLQEGDKLMVNVSDISLVDYTKEDKTFFGAFLL | 23.3 nM | 5.1 ratio (head: nM) | 77 nM | 2.9 ratio (head: nM)
TL1W117 (His-TEV-TL1A T192E) (ligand, also called TL1W117 (T192E)) HHHHHHENLYFQGLKGQEFAPSHQQVYAPLRADGDKPRAHLTVVRQTPTQHFKNQFPALHWEHELGLAFTKNRMNYTNKFLLIPESGDYFIYSQVTFRGMTSECSEIRQAGRPNKPDSITVVITKVTDSYPEPEQLLMGTKSVCEVGSNWFQPIYLGAMFSLQEGDKLMVNVSDISLVDYTKEDKTFFGAFLL | 12 nM | 2.6 ratio (head: nM) | 113 nM | 4.3 ratio (head: nM)
TL1W104 (His-TEV-TL1A T185L) (ligand, also called TL1W104 (T185L)) HHHHHHENLYFQGLKGQEFAPSHQQVYAPLRADGDKPRAHLTVVRQTPTQHFKNQFPALHWEHELGLAFTKNRMNYTNKFLLIPESGDYFIYSQVTFRGMTSECSEIRQAGRPNKPDSITVVITKVLDSYPEPTQLLMGTKSVCEVGSNWFQPIYLGAMFSLQEGDKLMVNVSDISLVDYTKEDKTFFGAFLL | 19.3 nM | 4.2 ratio (head: nM) | 49.4 nM | 1.9 ratio (head: nM)
